The data set is described as follows: soluble on expression in E. coli; label from the status in PepcDB or PDB records.
With “MGSDKIHHHHHHMKVSADVRAMIERRKKNYSLEAPFYTSDEIFALDMEAIFRQHWIQVAVEPDVPEPGDYITVDIGNDSILIVRDDDMQVRAFHNVCRHRGARLCNTDKGSLGNIVCPYHSWTYNLNGDLMFAEHMGEQFDRCKHSLKAVHVENLAGLIFICLADNPPADFAVVRAAMEPYMLPHALASCKIAASIDIIEEGNWKLTMENNRECYHCVANHPELTISLYEYGFGYQRTPANEEGMAAFEETVARRTAQWEAMQLPSAEIERLADLVTGFRTQRLPLDRDGESQTLDAKVASKKLLGGFEQADLGGLSFWTQPNSWHHFMSDHIVSFSVIPLSAGKTLVRTKWLVHKDAREGIDYDVDNLTAVWRATNDQDRALVEYSQRGATSSAYEPGPYSPFTEGLVEKFCEWYIGRMAQYSNAPQTHDAGDTAPASHGEKVVSFKR”, the “soluble on expression in E. coli” value was “not soluble”.

For “MQTSIDPVFAGWDGSVAQARQLQQQLAQRVALRDEVSAAPALLAGFDVGFEDDGQTTRAAAVLLDAQTLLPLETHVARVPTSMPYVPGLLSFRELPALLRALALLARTPDLVFIDGQGIAHPRRFGIAAHFGVVTGLPSIGVAKQRLAGTFIEPGGERGDHSPILLAGAQIGWALRSKPRCNPLIVSPGHRVSMQGALDWTLRTLRAYRLPEPTRLADRLASRRGEIELQTQPTLLLEHHHHHH”, the “soluble on expression in E. coli” value is on record as “not soluble”.

In the case of “MILKPIGVVKSPFKTQNDAPRQGRFSDAVSEIAIFDEYADGLHKIENLRHIIVLYWMDKASRDKLRVVPPGETEERGVFTTRSPSRPNPIGLCVVEILEVERNRLKVRWLDALDGSPVIDIKKYSPEIDCVNQLEGQQPLEHHHHHH”, the “soluble on expression in E. coli” value is on record as “soluble”.

These data come from the DeepSol protein solubility set.
